{"source": "paper PMC6128652", "about": "“Structure of the Cladosporium fulvum Avr4 effector in complex with (GlcNAc)6 reveals the ligand-binding mechanism and uncouples its intrinsic function from recognition by the Cf-4 resistance protein” (PLoS Pathogens, 2018)", "molecules": {"B1": {"name": "Q69N (protein)", "chain": "KAPKTQPYNPCKPQEVIDTKCMGPKDCLYPNPDSCTTYINCVPLDEVGNAKPVVKPCPKGLQWNDNVGKKWCDYPNLSTCPVKTPQ", "modifications": "left off: 6x His (two), N-terminal, state not stated"}, "B2": {"name": "K84A (protein)", "chain": "B1 chain with N40Q, K55A", "modifications": "left off: 6x His (two), N-terminal, state not stated"}, "B3": {"name": "W100A (protein)", "chain": "B1 chain with N40Q, W71A", "modifications": "left off: 6x His (two), N-terminal, state not stated"}}, "key": {"[1]": {"system": "subtilisin", "assay": "Subtilisin treatment (resistance against proteolytic degradation)", "type": "in vitro ADME", "parameters": "key to Stability (Subtilisin assay): S: stable; PU: partially unstable", "conditions": "for Stability (Subtilisin assay): 500 ng/μL subtilisin, 30 min, room temperature; for susceptibility to proteolytic degradation by subtilisin: 500 ng/μl subtilisin, band of mature CfAvr4 on SDS-PAGE", "procedure": "The WT-CfAvr4 and selected mutants thereof were exposed to the non-specific protease subtilisin in order to determine their resistance against proteolytic degradation. Treatments with subtilisin were made as previously described with minor modifications. Briefly, 40 μM of the E. coli-produced CfAvr4 and the selected CfAvr4 mutants were mixed with 10 mM of calcium chloride and 500 ng/μL of subtilisin (Sigma-Aldrich) in a total volume of 15 μL. Samples were incubated for 30 min at room temperature, after which period they were denatured by mixing with 10 mM PMSF and SDS-PAGE loading buffer, and heating at 98°C for 10 min. Digestion products were visualized on an SDS-PAGE after staining with Coomassie blue."}, "[2]": {"system": "Cf-4", "assay": "Agrobacterium tumefaciens transient transformation assay (ATTA): co-expression with Cf-4 in Nicotiana benthamiana leaves", "type": "in vivo", "conditions": "N. benthamiana, three cell density ratios 0.5:1, 1:1, 2:1", "procedure": "The Agrobacterium tumefaciens transient transformation assay (ATTA) was used for the transient co-expression into leaves of Nicotiana benthamiana of Cf-4 with the WT-CfAvr4 and the mutants thereof tested in this study. Briefly, N. benthamiana plants were grown in a growth chamber with 16 h of artificial light and 70% humidity, at 25°C for 4 weeks. The true mature form of the WT-CfAvr4 (i.e. between Lys30-Gln115) and of the mutants thereof were singly cloned into the binary expression vector pICH47742 downstream of the PR1A signal sequence of Nicotiana tabacum for targeted secretion into the apoplast, and under the control of CaMV 35S promoter and NOS terminator. The tomato Cf-4 was cloned into pMOG800 as descripted before. Binary vector plasmids were transformed into A. tumefaciens strain GV3101 by electroporation. For the ATTA assay, agrobacteria transformed with pMOG800:Cf-4 was grown in 10mL LB-mannitol medium (LB medium with 10 g/L mannitol) amended with 50 μg/mL kanamycin and 25 μg/mL rifampicin, whereas agrobacteria transformed with pICH47742:WT-CfAvr4 or pICH4774:CfAvr4-mutants were grown in LB-mannitol amended with 100 μg/mL carbenicillin and 25 μg/mL rifampicin. All cultures were incubated at 28°C for 2 days, after which period they were pelleted at 2800g for 15 min, re-suspended in MMAi medium (5 g/L Murashige and Skoog basal salts, 20 g/L sucrose, 10 mM MES, and […]) at an optical cell density (A600) of 2.0, and further incubated for 2–4 h at room temperature. Agroinfiltrations were performed by mixing agrobacteria containing pMOG800:Cf-4 with agrobacteria containing pICH47742_WT-CfAvr4 or pICH47742:CfAvr4-mutants at three different ratios of optical cell densities, i.e. A6000.5:A6001.0, A6000.5:A6000.5, and A6000.5:A6000.25 of. The mixture of agrobacteria was infiltrated into the leaves of N. benthamiana plants using a 1 mL syringe and the induction of an HR in the infiltrated leaf sectors was evaluated at 5 days post-infiltrations. Control infiltrations were made using only the pMOG800:Cf-4 transformed agrobacteria and the agrobacteria containing pICH47742:CfAvr4 or the mutants thereof without mixing the two cultures, at cell densities of A6000.25, A6000.5, and A6001.0."}, "[3]": {"system": "Cf-4 immune receptor", "assay": "Pure protein infiltrations into tomato leaves of cv Purdue 135 (+ Cf-4), hypersensitive response", "type": "in vivo", "conditions": "5 dpi", "source_text": "Tomato seeds were obtained from the Tomato Genetic Resource Center (TGRC) at UC Davis. WT-CfAvr4 and mutants thereof with single point mutations at selected amino acids were produced and purified from E. coli Rosetta-gami B cells as description above. […]"}, "[4]": {"assay": "Isothermal titration calorimetry (ITC) of CfAvr4 variants with chitin hexasaccharide", "type": "binding", "conditions": "ITC; for increase in the Kd relative to WT-CfAvr4: (GlcNAc)6", "procedure": "A stock solution of the monomer of N-acetylglucosamine was prepared by dissolving the dry powder in a buffer containing 10 mM Bis-Tris, pH 6.5, 100 mM NaCl to a concentration of 0.100 g/L using analytic techniques. Standard solution of 0, 0.010, 0.025, 0.050, 0.075 g/L were prepared by serial dilutions. Using glass test tubes and pipets, 100 μL of each standard was mixed with 300μL of concentrated sulfuric acid and vortexed for 10 sec to mix. Solutions were incubated at RT for 10 min and then placed on ice to stop the reaction. […] Analytically prepared solution of the di- and tri-saccharide scaled linearly to the calibration curve. To determine the concentration of the chitin hexasaccharide solutions used in ITC, the solutions were diluted into the dynamic range of the calibration curve (S12 Fig) and subjected to the above procedure.\nAll ITC experiments were performed on a TA Instruments low volume NanoITC with a 186uL reaction cell and a reference cell filled with degassed Milli-Q grade water. Reactions were run in a buffer containing 10mM Bis-Tris, pH 6.5, 100 mM NaCl. The reservoir solution was filled with protein solution and continuously stirred while Chitin hexasaccharide solutions titrated in 2.5μL aliquots for 19 injections, with an initial 1μL injection, for a total injection volume of 48.5μL. The carbohydrate solutions were made by dissolving the dry powder in buffer to a concentration of 20mM (confirmed using methods described above) and then diluted to the working concentration using the final buffer exchange flow through to match the buffers as closely as possible. The integrated heats, after correction for the heat of dilution were analyzed using the NanoAnalyze software from […]. An individual binding site model was used to fit the binding isotherm. All experiments were replicated a minimum of three times."}, "[5]": {"system": "germlings of Trichoderma viride", "assay": "In vitro protection assay of T. viride germlings against chitinases", "type": "cell-based", "conditions": "5 μM protein with chitinases and β-1,3-glucanases; for protection of fungal hyphae against chitinases, fungal growth: 6–8 h", "procedure": "The ability of the WT-CfAvr4 and of ChBD mutants to protect against chitinases was evaluated in in vitro protection assays conducted as described before. Briefly, spores of T. viride (3∙10^3) were pre-germinated overnight at room temperature in 100 μl of half-strength PDB medium in 96 well plates. The following day, 5 μM of WT-CfAvr4 or ChBD mutants were mixed with 7.5 units of Zymolyase (Zymo Research cat. no. E1004) and 0.2 units of bacterial chitinases (Sigma-Aldrich cat. no. C6137) and the mixture was added to the microtitre plate wells containing the pre-germinated spores in a final volume of 150 μl. Plates were incubated at 25°C for 6–8 h before evaluating under the microscope fungal growth and the ability of the proteins to provide protection against chitinases. Zymolase has β-1,3 glucanase and β-1,3-glucan laminaripentaohydrolase activity and is added to the mixture in order to remove the surface glucans from the fungal cell wall and thus expose the underlying chitin layer."}}, "note": "Where a chain is given by its changes, count along the chain named. Entries after “also recorded” stand apart in the source; their conditions may differ."}
{"molecule": "B1", "values": [{"measurement": "Stability (Subtilisin assay)", "setting": "[1]", "value": "PU"}, {"measurement": "susceptibility to proteolytic degradation by subtilisin", "setting": "[1]", "value": "vulnerable to proteolytic degradation; also recorded: decreased intensity of this band"}, {"measurement": "HR on transient co-expression with Cf-4", "setting": "[2]", "value": "strong and similar in intensity HR"}, {"measurement": "Cf-4-mediated HR after protein infiltration", "setting": "[3]; 5 μg/ml", "value": "weak HR response"}, {"measurement": "Cf-4-mediated HR after protein infiltration", "setting": "[3]; 10 μg/ml", "value": "elicited an HR"}, {"measurement": "Cf-4-mediated HR after protein infiltration", "setting": "[3]; both 5 μg/ml and 10 μg/ml", "value": "only partially trigger an HR"}, {"measurement": "increase in the Kd relative to WT-CfAvr4", "setting": "[4]", "value": "~ 20 fold"}, {"measurement": "morphology of hyphae after chitinase treatment", "setting": "[5]", "value": "signs of osmotic injuries such as swollen segments and coagulated cytoplasm; also recorded: signs of osmotic injuries, such as swollen segments and coagulated cytoplasm"}, {"measurement": "protection of fungal hyphae against chitinases, fungal growth", "setting": "[5]", "value": "enable fungal growth to levels comparable to those of the WT-CfAvr4"}]}
{"molecule": "B2", "values": [{"measurement": "Stability (Subtilisin assay)", "setting": "[1]", "value": "S"}, {"measurement": "susceptibility to proteolytic degradation by subtilisin", "setting": "[1]", "value": "as resilient to proteolysis as the WT-CfAvr4"}, {"measurement": "HR on transient co-expression with Cf-4", "setting": "[2]", "value": "full HR; also recorded: strong and similar in intensity HR"}, {"measurement": "Cf-4-mediated HR after protein infiltration", "setting": "[3]; both 5 μg/ml and 10 μg/ml", "value": "strong and equal in intensity HR; also recorded: full HR; also recorded: strong and equally in intensity necrosis"}, {"measurement": "increase in the Kd relative to WT-CfAvr4", "setting": "[4]", "value": "~ 20 fold"}, {"measurement": "morphology of hyphae after chitinase treatment", "setting": "[5]", "value": "signs of osmotic injuries such as swollen segments and coagulated cytoplasm; also recorded: signs of osmotic injuries, such as swollen segments and coagulated cytoplasm"}, {"measurement": "protection of fungal hyphae against chitinases, fungal growth", "setting": "[5]", "value": "enable fungal growth to levels comparable to those of the WT-CfAvr4"}]}
{"molecule": "B3", "values": [{"measurement": "Stability (Subtilisin assay)", "setting": "[1]", "value": "S"}, {"measurement": "susceptibility to proteolytic degradation by subtilisin", "setting": "[1]", "value": "as resilient to proteolysis as the WT-CfAvr4"}, {"measurement": "HR on transient co-expression with Cf-4", "setting": "[2]", "value": "full HR; also recorded: strong and similar in intensity HR"}, {"measurement": "Cf-4-mediated HR after protein infiltration", "setting": "[3]; both 5 μg/ml and 10 μg/ml", "value": "strong and equal in intensity HR; also recorded: full HR; also recorded: strong and equally in intensity necrosis"}, {"measurement": "effect of the mutation on binding to (GlcNAc)6", "setting": "[4]; compared with WT-CfAvr4", "value": "abolished all detectable binding"}, {"measurement": "protection of fungal hyphae against chitinases, fungal growth", "setting": "[5]", "value": "essentially failed to protect the fungal hyphae against chitinases; also recorded: fail to protect the fungal hyphae"}]}
